Experimental data reported in the supplement of paper PMC12764529.
± gives the half width of the 95% confidence interval.

assay: folding stability dG unfold from trypsin proteolysis; higher = more stable
In short: (§1)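 Designed mini-proteins (under 80 residues, no cysteine) in a PA-tagged cDNA display construct were digested with trypsin and chymotrypsin. Each protease was used at 11 concentrations (threefold dilutions) plus a no-protease condition, followed by sequencing. K50 was inferred by Bayesian fitting of sequencing counts, and unfolding free energy was derived against a sequence-predicted unfolded-state K50 and a shared folded-state K50, per protease or combined. Only designs with AlphaFold2 dimer inter-PAE above 15 were kept.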

Row | Sequence | folding stability dG unfold [kcal/mol]
1 | SAGMKYTAEVKVKEKDKEIDVTVSDDATFTDPEGKETTFKIGSEEELKKALEEIFPEKYPYEILSVKVLSAG [r14_41_JUSTAS] | -0.65 ± 0.47
2 | SAGGSAGGSSPVKQVTEVKDPHSSLPLLRTTETLVLPNGEVVTKVKFIDTKTGKSTEEIFTIPSAGGSAGGS [r20_229_JUSTAS] | 0.724 ± 0.046
3 | SAGDADEDPVLVVFVRTEERPLVVVRRVEPDEDPEEVAKELAAEIREKLGPDVEVFVEMVRREDAEKLFSAG [r5_583_TrMRF] | 2.27 ± 0.052
4 | SAGGSAGGSAGGDIFIPPNGKLVVIENLPSIEEALEILKNFPNLKPFIDPKTKKIIVPVSAGGSAGGSAGGS [r10_792_TrMRF] | -0.145 ± 0.075
5 | SAGGKKTFKVTLTLELKVERDEETGELKTETLTLTLTIEAESEEEAEKALKELLEKLELSPELKKALSAGGS [r16_40_TrROS_Hall] | 2.17 ± 0.082
6 | SAGGSAGGSASPQVVEVLSTVPLPGSNIVIEKTSDASGNSYVYDPNTGKWFSPEEAKKLLSSAGGSAGGSAG [r3_206_JUSTAS] | 0.84 ± 0.057
7 | SAGGSAGGKEVYKIKVKNAEIVDFDEETGELTIKLKETGKEIKIPLKAIKKIEITDDYIYIYVESAGGSAGG [r6_313_TrROS_Hall] | 3.64 ± 0.25
8 | PNFKIDIEIIKAEEVPPRPTDDGKPQPVRRIHIRIEVKGPPDQPPELANNIVEEIMAELQELGLPVHIHVWS [r1_305_TrROS] | 1.62 ± 0.054
9 | SPLKPNDIRPIKFTSPIRNPDNGRPFRIKVEIWVMPEDPMVIIKDEIEPPNGRTREHTFWIPPGQKIEIPSA [r9_88_TrROS] | 0.261 ± 0.13
10 | SMRKVKRKVTLEITIKVPESVLKPIPDADYYTYPFDDKLVKPDAVIPRTVTITGPYTEEEVEKLVKEILSSA [r9_165_JUSTAS] | 0.749 ± 0.2
11 | SAGGSAGGSPNPKVVPFTFPVVIPDEDGHPYLVNVTVTAIPDTDTYYARITYPDGRVEDFVLASAGGSAGGS [r12_286_TrMRF] | 1.94 ± 0.049
12 | SAMLEEVEERAREIAERLREEYPDVEEFTVELELPLPDGRFLRVTVTIRRERDDEGDTFEVEVDVEEVDSAG [r14_788_TrMRF] | 3.47 ± 0.13
13 | SAGGGMSTYTITINIVIDPKEKKVPKPPLKDPFKLPPLKTIPITITAETSDPAVAAALEKAVKEALGLSAGG [r13_35_JUSTAS] | 1.73 ± 0.038
14 | SAGGSAGRSRPLRLRFENPENGLRTEVELRVFEIGDYRVILLRERTYHPDTPGLSERDLLILLPPESAGGSA [r15_960_TrMRF] | 3.03 ± 0.058
15 | SAGGMEIKEVKYDPEEGYLYIVVAAPPSVSPSEVVPAVVRAARELTGAEVEVEVDPETGYVVAKVPVSAGGS [r8_314_TrMRF] | 1.43 ± 0.026
16 | SAGGSTVKTITLEFTRDPSTGAITEAEAEIERLKNDPNWEVTDPTITPLPDGTVKVPAKVKIPSNANLSAGG [r13_428_JUSTAS] | 0.116 ± 0.2
17 | SKPPSDPGSIEFSFPDSSNVTVTIPVPLPPNTTVSISLSDGKSYTVPGGTTFTFTLPPGKPFTVTVNIRSSA [r9_79_JUSTAS] | 3.75 ± 0.2

assay: folding stability dG unfold (combined trypsin and chymotrypsin); higher = more stable
In short: as §1

Row | Sequence | folding stability dG unfold [kcal/mol]
18 | SAGMKYTAEVKVKEKDKEIDVTVSDDATFTDPEGKETTFKIGSEEELKKALEEIFPEKYPYEILSVKVLSAG [r14_41_JUSTAS] | -0.0975 ± 0.2
19 | SAGGSAGGSSPVKQVTEVKDPHSSLPLLRTTETLVLPNGEVVTKVKFIDTKTGKSTEEIFTIPSAGGSAGGS [r20_229_JUSTAS] | 0.833 ± 0.089
20 | SAGDADEDPVLVVFVRTEERPLVVVRRVEPDEDPEEVAKELAAEIREKLGPDVEVFVEMVRREDAEKLFSAG [r5_583_TrMRF] | 2.42 ± 0.11
21 | SAGGSAGGSAGGDIFIPPNGKLVVIENLPSIEEALEILKNFPNLKPFIDPKTKKIIVPVSAGGSAGGSAGGS [r10_792_TrMRF] | -0.216 ± 0.099
22 | SAGGKKTFKVTLTLELKVERDEETGELKTETLTLTLTIEAESEEEAEKALKELLEKLELSPELKKALSAGGS [r16_40_TrROS_Hall] | 3.4 ± 0.097
23 | SAGGSAGGSASPQVVEVLSTVPLPGSNIVIEKTSDASGNSYVYDPNTGKWFSPEEAKKLLSSAGGSAGGSAG [r3_206_JUSTAS] | 1.5 ± 0.1
24 | SAGGSAGGKEVYKIKVKNAEIVDFDEETGELTIKLKETGKEIKIPLKAIKKIEITDDYIYIYVESAGGSAGG [r6_313_TrROS_Hall] | 4.15 ± 0.17
25 | PNFKIDIEIIKAEEVPPRPTDDGKPQPVRRIHIRIEVKGPPDQPPELANNIVEEIMAELQELGLPVHIHVWS [r1_305_TrROS] | 1.83 ± 0.21
